Results: patent US20040167319A1 (Genmab, published 2004)

Molecular target: human CD20 (human) (UniProt P11836)
Experiment: dissociation of 125I-labelled F(ab)2 fragments from Ramos-EHRB cells, initial binding set at 100%

human CD20 (human), sequence (P11836 whole entry, the tested form may be a part): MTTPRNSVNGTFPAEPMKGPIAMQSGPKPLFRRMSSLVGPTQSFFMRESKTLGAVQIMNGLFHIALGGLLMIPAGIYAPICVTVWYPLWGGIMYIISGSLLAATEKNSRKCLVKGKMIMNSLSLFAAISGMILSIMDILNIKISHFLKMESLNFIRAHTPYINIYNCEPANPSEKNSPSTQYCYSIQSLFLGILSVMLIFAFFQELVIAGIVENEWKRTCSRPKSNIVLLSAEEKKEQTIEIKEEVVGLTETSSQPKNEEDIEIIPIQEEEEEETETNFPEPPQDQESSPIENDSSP

percent still bound at 90 min: 50%
Substance: F(ab′)2 fragment of rituximab
